From the supplement of paper PMC10065799, “High-throughput profiling of sequence recognition by tyrosine kinases and SH2 domains using bacterial peptide display” (eLife, 2023)

Experiments:
AncSZ = assay: phosphorylation enrichment, bacterial display (enrichment ratio); higher = better substrate or ligand; peptides without Tyr show the background
EPHB1 = EPHB1 (UniProt P54762); assay: as above
EPHB2 = EPHB2 (UniProt P29323); assay: as above
FGFR1 = FGFR1 (UniProt P11362); assay: as above
FGFR3 = FGFR3 (UniProt P22607); assay: as above
Fer (mouse) = assay: as above
Fes = Fes (UniProt P07332); assay: as above
Fyn = Fyn (UniProt P06241); assay: as above
Hck = Hck (UniProt P08631); assay: as above
Jak2 = Jak2 (UniProt O60674); assay: as above
MERTK = MERTK (UniProt Q12866); assay: as above
c-Abl (mouse) = assay: as above
c-Src = assay: as above
Grb2 SH2 = Grb2 SH2 (UniProt P62993); assay: SH2 binding enrichment of the phosphorylated peptide, bacterial display (enrichment ratio); higher = better substrate or ligand; peptides without Tyr show the background
SHP2-C SH2 = assay: as above
c-Src SH2 = assay: as above
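Throughout, for SH2 binding enrichment of the phosphorylated peptide, bacterial display: peptide library displayed on the E. coli surface as eCPX fusions, selected cells deep-sequenced, score is each peptide's frequency after selection divided by its frequency in the input.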
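Throughout, for phosphorylation enrichment, bacterial display: 11-residue human phosphosite peptides and single-mutation variants displayed on the E. coli surface, counted by deep sequencing, each peptide's frequency after selection divided by its frequency in the unselected input library; frequency after pTyr selection over input frequency; kinase dosed for 20-30% of maximal phosphorylation in three min.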

Sequence of FGFR3 (P22607 whole entry, looked up): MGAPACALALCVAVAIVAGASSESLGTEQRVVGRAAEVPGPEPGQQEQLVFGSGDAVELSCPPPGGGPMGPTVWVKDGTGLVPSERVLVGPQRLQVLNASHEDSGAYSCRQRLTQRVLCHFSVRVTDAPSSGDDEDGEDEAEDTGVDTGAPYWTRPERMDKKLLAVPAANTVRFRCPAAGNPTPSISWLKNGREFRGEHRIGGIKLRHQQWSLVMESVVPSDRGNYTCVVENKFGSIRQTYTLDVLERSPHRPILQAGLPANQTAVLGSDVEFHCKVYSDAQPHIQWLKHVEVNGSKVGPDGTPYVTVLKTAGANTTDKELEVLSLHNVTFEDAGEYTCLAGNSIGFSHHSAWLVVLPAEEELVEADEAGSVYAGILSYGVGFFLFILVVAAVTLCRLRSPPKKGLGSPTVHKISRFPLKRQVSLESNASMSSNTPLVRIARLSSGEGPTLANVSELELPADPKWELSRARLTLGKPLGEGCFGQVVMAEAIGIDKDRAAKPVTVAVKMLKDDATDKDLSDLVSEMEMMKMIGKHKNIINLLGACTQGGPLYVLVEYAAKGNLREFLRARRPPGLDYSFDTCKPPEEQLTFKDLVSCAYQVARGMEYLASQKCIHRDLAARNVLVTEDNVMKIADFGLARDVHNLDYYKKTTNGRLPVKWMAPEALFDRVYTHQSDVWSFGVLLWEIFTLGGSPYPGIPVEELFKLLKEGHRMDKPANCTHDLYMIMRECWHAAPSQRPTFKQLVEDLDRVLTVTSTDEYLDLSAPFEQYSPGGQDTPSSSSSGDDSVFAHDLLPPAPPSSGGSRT
Sequence of Hck (P08631 whole entry, looked up): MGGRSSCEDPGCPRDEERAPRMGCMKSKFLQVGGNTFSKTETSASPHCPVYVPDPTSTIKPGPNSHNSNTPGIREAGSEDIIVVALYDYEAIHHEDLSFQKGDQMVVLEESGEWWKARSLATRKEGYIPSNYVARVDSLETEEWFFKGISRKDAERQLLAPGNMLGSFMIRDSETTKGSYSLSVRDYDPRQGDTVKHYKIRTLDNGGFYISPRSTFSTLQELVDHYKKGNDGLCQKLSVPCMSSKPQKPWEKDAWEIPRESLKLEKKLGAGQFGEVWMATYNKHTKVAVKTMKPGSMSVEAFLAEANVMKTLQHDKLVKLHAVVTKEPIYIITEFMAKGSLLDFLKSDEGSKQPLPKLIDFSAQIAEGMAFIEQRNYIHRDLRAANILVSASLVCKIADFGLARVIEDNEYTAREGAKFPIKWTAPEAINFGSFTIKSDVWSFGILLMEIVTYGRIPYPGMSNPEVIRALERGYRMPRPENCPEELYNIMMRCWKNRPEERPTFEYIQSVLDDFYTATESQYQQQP
Sequence of Jak2 (O60674 whole entry, looked up): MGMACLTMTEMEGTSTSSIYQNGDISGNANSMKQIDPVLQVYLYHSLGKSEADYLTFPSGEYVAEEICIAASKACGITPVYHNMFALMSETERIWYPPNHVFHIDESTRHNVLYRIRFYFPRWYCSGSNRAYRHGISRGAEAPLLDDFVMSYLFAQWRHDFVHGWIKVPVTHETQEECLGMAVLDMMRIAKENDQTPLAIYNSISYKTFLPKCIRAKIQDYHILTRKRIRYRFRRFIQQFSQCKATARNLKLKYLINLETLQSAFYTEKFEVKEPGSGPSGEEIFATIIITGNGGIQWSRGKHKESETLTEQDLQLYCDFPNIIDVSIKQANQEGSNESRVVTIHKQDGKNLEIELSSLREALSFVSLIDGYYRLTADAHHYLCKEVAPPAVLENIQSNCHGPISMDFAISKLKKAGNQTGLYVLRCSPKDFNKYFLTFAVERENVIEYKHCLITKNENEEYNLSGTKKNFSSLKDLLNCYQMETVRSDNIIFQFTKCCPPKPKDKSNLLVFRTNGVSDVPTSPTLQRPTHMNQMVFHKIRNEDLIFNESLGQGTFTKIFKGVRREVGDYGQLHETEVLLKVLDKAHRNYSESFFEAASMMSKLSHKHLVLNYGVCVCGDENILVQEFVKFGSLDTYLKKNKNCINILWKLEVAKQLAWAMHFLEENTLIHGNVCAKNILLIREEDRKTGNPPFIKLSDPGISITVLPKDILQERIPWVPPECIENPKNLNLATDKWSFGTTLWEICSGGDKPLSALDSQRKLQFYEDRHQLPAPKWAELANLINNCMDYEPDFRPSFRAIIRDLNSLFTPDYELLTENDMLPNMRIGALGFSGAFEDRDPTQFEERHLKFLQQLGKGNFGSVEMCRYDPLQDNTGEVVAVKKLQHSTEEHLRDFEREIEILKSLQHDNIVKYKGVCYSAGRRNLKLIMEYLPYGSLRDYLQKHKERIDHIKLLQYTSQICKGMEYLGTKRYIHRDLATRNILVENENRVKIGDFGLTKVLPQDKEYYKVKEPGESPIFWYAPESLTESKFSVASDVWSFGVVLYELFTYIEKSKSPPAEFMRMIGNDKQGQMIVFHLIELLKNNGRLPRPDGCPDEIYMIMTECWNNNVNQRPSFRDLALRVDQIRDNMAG
Sequence of EPHB2 (P29323 whole entry, looked up): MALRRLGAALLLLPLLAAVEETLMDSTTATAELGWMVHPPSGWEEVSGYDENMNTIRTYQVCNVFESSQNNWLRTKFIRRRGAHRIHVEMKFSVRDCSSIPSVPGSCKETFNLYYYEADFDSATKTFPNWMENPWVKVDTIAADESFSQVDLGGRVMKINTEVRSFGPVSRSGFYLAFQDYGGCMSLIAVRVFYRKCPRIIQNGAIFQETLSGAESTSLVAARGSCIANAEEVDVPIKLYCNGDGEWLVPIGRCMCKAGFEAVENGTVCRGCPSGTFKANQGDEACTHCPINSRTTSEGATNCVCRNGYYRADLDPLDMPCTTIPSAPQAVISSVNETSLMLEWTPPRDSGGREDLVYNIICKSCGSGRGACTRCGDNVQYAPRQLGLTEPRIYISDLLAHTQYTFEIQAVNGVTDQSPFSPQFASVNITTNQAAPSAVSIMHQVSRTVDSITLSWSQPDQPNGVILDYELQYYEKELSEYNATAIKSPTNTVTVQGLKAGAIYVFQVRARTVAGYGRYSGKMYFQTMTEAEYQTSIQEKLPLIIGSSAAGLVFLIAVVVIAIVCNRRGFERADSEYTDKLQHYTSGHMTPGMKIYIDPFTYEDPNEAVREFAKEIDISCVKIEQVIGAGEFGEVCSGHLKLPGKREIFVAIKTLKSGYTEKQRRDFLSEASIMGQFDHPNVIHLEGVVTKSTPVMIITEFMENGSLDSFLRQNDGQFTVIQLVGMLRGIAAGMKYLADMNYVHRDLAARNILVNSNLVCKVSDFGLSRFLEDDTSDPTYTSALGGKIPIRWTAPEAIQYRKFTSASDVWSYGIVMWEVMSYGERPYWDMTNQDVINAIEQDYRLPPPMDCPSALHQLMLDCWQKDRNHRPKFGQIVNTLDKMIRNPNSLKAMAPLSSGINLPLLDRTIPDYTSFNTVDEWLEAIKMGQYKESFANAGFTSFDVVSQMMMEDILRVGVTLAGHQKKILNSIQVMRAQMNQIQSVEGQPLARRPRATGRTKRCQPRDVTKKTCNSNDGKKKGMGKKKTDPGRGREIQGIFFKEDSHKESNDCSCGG
Sequence of Fes (P07332 whole entry, looked up): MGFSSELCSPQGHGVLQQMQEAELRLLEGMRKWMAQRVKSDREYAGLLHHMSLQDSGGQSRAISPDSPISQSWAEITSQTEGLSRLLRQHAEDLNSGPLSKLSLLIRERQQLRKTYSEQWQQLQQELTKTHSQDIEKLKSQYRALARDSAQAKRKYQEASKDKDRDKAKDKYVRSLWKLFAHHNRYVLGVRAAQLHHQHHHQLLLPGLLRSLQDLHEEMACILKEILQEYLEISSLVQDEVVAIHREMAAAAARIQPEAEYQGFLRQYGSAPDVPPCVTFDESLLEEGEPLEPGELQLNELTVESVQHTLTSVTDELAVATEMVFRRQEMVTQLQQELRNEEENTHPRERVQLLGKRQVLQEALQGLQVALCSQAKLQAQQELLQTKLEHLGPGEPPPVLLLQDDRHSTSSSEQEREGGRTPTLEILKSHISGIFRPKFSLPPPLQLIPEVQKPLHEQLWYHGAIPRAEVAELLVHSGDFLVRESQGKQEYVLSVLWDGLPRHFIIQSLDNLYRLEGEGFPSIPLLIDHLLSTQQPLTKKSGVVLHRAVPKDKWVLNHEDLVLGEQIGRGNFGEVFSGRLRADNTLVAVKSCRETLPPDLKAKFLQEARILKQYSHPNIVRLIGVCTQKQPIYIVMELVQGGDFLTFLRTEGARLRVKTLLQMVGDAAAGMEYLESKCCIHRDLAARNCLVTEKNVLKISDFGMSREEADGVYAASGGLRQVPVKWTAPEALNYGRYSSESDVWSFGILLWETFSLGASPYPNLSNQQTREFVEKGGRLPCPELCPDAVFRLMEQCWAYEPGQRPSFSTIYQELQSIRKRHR
Sequence of Fyn (P06241 whole entry, looked up): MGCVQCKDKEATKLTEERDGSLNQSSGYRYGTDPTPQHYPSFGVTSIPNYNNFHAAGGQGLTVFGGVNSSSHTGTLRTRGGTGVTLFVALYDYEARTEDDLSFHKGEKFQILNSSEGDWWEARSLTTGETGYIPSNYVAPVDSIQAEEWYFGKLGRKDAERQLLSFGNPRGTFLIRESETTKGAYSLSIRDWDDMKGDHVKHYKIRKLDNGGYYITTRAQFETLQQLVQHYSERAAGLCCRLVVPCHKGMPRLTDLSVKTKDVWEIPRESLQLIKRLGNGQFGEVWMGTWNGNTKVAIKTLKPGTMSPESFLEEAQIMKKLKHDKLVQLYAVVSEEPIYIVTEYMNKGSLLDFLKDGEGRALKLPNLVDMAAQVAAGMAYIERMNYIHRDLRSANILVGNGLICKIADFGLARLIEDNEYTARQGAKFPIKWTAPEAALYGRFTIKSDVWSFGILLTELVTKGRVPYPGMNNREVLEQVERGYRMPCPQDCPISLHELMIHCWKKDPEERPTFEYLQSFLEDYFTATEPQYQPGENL

| Sequence | phosphorylation enrichment (AncSZ) | phosphorylation enrichment (EPHB1) | phosphorylation enrichment (EPHB2) | phosphorylation enrichment (FGFR1) | phosphorylation enrichment (FGFR3) | phosphorylation enrichment (Fer (mouse)) | phosphorylation enrichment (Fes) | phosphorylation enrichment (Fyn) | phosphorylation enrichment (Hck) | phosphorylation enrichment (Jak2) | phosphorylation enrichment (MERTK) | phosphorylation enrichment (c-Abl (mouse)) | phosphorylation enrichment (c-Src) | SH2 binding enrichment (Grb2 SH2) | SH2 binding enrichment (SHP2-C SH2) | SH2 binding enrichment (c-Src SH2) |
| --- | --- | --- | --- | --- | --- | --- | --- | --- | --- | --- | --- | --- | --- | --- | --- | --- |
| YETSHYLASPD [CTNND2_Y1217_P1218L] | 1.09 | 0.59 | 0.767 | 0.649 | 0.633 | 0.685 | 0.961 | 0.523 | 0.554 | 0.809 | 0.784 | 0.821 | 0.529 | 1.11 | 0.675 | 1.1 |
| GDEVEYMSVSF [GCLC_Y53_L55S] | 1.56 | 0.561 | 0.832 | 1.01 | 1.17 | 0.972 | 1.16 | 1.41 | 1.26 | 1.11 | 0.418 | 0.846 | 1.49 | 0.736 | 0.623 | 0.376 |
| NTCNRYCCDEI [ITGB3_Y660_R662C] | 1.44 | 0.694 | 0.594 | 0.595 | 0.88 | 0.612 | 1.49 | 0.577 | 0.574 | 1.43 | 0.538 | 1.03 | 0.541 | 0.841 | 0.752 | 0.557 |
| WSRAMYPDLGP [STARD8_Y330] | 0.745 | 0.396 | 0.397 | 0.467 | 0.575 | 0.435 | 0.779 | 0.463 | 0.463 | 0.579 | 0.478 | 0.52 | 0.39 | 1.02 | 0.933 | 0.608 |
| LSSEMCVKSYT [F5_Y2149_Y2149C] | 1.55 | 1.54 | 0.888 | 1.23 | 1.04 | 1.46 | 1.76 | 1.2 | 0.877 | 2.4 | 1.1 | 1.59 | 1.16 | 0.665 | 0.452 | 0.451 |
| YLEEEYVKAVG [TF_Y674_G671E] | 1.36 | 0.629 | 0.63 | 0.606 | 0.893 | 0.615 | 1.32 | 0.491 | 0.575 | 1.18 | 0.454 | 1.01 | 0.505 | 0.75 | 0.685 | 0.323 |
| GIKAAYEAERG [LMNA_Y81_L85R] | 0.566 | 0.344 | 0.363 | 0.403 | 0.487 | 0.365 | 0.755 | 0.329 | 0.406 | 0.517 | 0.347 | 0.475 | 0.344 | 0.83 | 0.685 | 0.553 |
| GRLFAYPDTHC [CAT_Y358_R363C] | 0.784 | 0.556 | 0.512 | 0.466 | 0.687 | 0.479 | 1.05 | 0.466 | 0.481 | 0.785 | 0.432 | 0.75 | 0.403 | 0.835 | 0.846 | 0.531 |
| DTERIYDDDFF [UBA1_Y560] | 1.36 | 0.661 | 0.62 | 0.605 | 0.876 | 0.995 | 1.41 | 0.748 | 0.668 | 1.63 | 0.702 | 1.01 | 0.736 | 0.836 | 0.611 | 0.599 |
| YDGGCYEQLFV [MC4R_Y41_S36Y] | 2.51 | 1.24 | 0.968 | 1.18 | 1.45 | 11.4 | 1.38 | 2.04 | 3.08 | 1.21 | 1.17 | 1.01 | 2.71 | 0.742 | 0.623 | 0.598 |
| ESKAGYRVPRS [CLDN7_Y195] | 0.543 | 0.303 | 0.327 | 0.305 | 0.352 | 0.52 | 0.583 | 0.369 | 0.416 | 0.524 | 0.339 | 0.681 | 0.43 | 0.83 | 0.699 | 0.544 |
| SVVVPYELPEV [TP53_Y220_P222L] | 1.65 | 0.643 | 0.659 | 0.553 | 0.723 | 0.581 | 1.29 | 0.503 | 0.58 | 1.09 | 0.47 | 0.848 | 0.545 | 0.765 | 0.614 | 1.78 |
| FRDALYKFIVD [PHEX_Y250_M253I_YF] | 1.02 | 0.644 | 0.489 | 0.44 | 0.748 | 0.479 | 1.32 | 0.508 | 0.56 | 0.919 | 0.902 | 0.809 | 0.546 | 1.02 | 1.02 | 1.04 |
| RGEAVYSRDCV [XPC_Y676] | 0.997 | 0.764 | 0.655 | 0.718 | 1.01 | 0.472 | 1.2 | 2.95 | 2.93 | 1.01 | 0.857 | 0.692 | 2.34 | 0.788 | 0.751 | 0.522 |
| SCRSKYVGLWG [KCNQ1_Y184_G179S] | 0.665 | 0.39 | 0.497 | 0.364 | 0.456 | 0.465 | 0.984 | 0.419 | 0.423 | 0.574 | 0.451 | 0.541 | 0.509 | 1.18 | 0.721 | 0.866 |
| IEPGIYIPEDD [XPNPEP3_Y455] | 1.23 | 0.598 | 0.523 | 0.521 | 0.902 | 0.576 | 1.38 | 0.59 | 0.592 | 1.24 | 0.558 | 1.05 | 0.702 | 0.802 | 0.819 | 0.454 |
| EIVFVYVKKRS [DNAI2_Y7_YF] | 0.995 | 0.373 | 0.476 | 0.498 | 0.467 | 0.593 | 1.05 | 0.341 | 0.456 | 1.34 | 0.296 | 0.585 | 0.386 | 0.995 | 0.833 | 0.516 |

| Sequence | phosphorylation enrichment (AncSZ) | phosphorylation enrichment (EPHB1) | phosphorylation enrichment (EPHB2) | phosphorylation enrichment (FGFR1) | phosphorylation enrichment (FGFR3) | phosphorylation enrichment (Fer (mouse)) | phosphorylation enrichment (Fes) | phosphorylation enrichment (Fyn) | phosphorylation enrichment (Hck) | phosphorylation enrichment (Jak2) | phosphorylation enrichment (MERTK) | phosphorylation enrichment (c-Abl (mouse)) | phosphorylation enrichment (c-Src) | SH2 binding enrichment (Grb2 SH2) | SH2 binding enrichment (SHP2-C SH2) | SH2 binding enrichment (c-Src SH2) |
| --- | --- | --- | --- | --- | --- | --- | --- | --- | --- | --- | --- | --- | --- | --- | --- | --- |
| RQQEDYLLYKQ [RARRES1_Y159] | 1.32 | 0.793 | 0.823 | 0.743 | 0.86 | 1.1 | 1.65 | 0.547 | 0.969 | 2.46 | 0.631 | 1.39 | 0.941 | 0.821 | 0.842 | 0.561 |
| FMCKVYSDPQP [FGFR1_Y280] | 1.41 | 0.752 | 0.701 | 0.543 | 0.863 | 0.591 | 1.64 | 0.516 | 0.578 | 1.3 | 0.425 | 0.99 | 0.664 | 0.733 | 0.511 | 0.439 |
| RWQQLYDTLNA [EIF3M_Y351_Q346R] | 1.32 | 1.95 | 2.02 | 0.574 | 0.848 | 3.35 | 1.45 | 5.67 | 7.68 | 2.43 | 6.56 | 0.788 | 3.71 | 0.827 | 0.695 | 0.338 |
| KHMADYPDFKF [SOX11_Y113_YF] | 0.745 | 0.503 | 0.496 | 0.62 | 0.701 | 0.434 | 0.84 | 0.502 | 0.391 | 0.669 | 0.398 | 0.591 | 0.386 | 0.733 | 0.719 | 0.387 |
| LPVHFYGHVEH [PYGM_Y204] | 1.68 | 1.33 | 0.889 | 1.54 | 1.66 | 1.9 | 1.74 | 1.58 | 0.935 | 1.63 | 1.07 | 1.26 | 0.803 | 1.2 | 1.01 | 1.48 |
| QFNMQYSSSAA [ERBB2IP_Y981_I979M_YF] | 0.937 | 0.592 | 0.529 | 0.558 | 0.674 | 0.492 | 1.18 | 0.388 | 0.47 | 0.581 | 0.492 | 0.449 | 0.346 | 0.694 | 0.527 | 0.643 |
| SLMNQYVNKKF [RAB7A_Y28] | 0.474 | 0.291 | 0.373 | 0.381 | 0.396 | 0.398 | 0.579 | 0.383 | 0.427 | 0.44 | 0.315 | 0.447 | 0.342 | 0.877 | 0.697 | 0.442 |
| SVIVPYEPPEV [TP53_Y220_V217I] | 1.1 | 0.622 | 0.618 | 0.6 | 0.81 | 0.631 | 1.23 | 0.654 | 0.517 | 1.08 | 0.447 | 0.831 | 0.445 | 0.731 | 0.712 | 1.28 |
| AVLSLYASDRT [ACTA1_Y145_G148D] | 0.967 | 0.662 | 0.664 | 0.476 | 0.666 | 0.515 | 1.14 | 0.637 | 0.538 | 0.884 | 0.446 | 0.893 | 0.465 | 0.895 | 0.88 | 0.452 |
| DSIRDYEDGTE [CLNS1A_Y214_M218T] | 1.55 | 0.784 | 0.565 | 0.511 | 0.988 | 0.766 | 1.58 | 0.602 | 0.57 | 1.35 | 0.959 | 1.02 | 1.1 | 0.829 | 0.67 | 0.577 |
| LGGAMYYLEAE [PKHD1_Y452] | 1.42 | 1.62 | 1.25 | 2.22 | 2.46 | 0.667 | 1.61 | 2.54 | 1.4 | 1.42 | 1.74 | 1.2 | 2.14 | 0.811 | 0.657 | 0.841 |
| KVGNGYISAAE [CALM2_Y100_D96V] | 0.619 | 0.4 | 0.468 | 0.456 | 0.588 | 0.476 | 0.65 | 0.337 | 0.393 | 0.485 | 0.42 | 0.538 | 0.391 | 0.892 | 0.546 | 0.53 |
| RELSWYRGQRP [HESX1_Y106_R109Q] | 0.962 | 0.581 | 0.661 | 0.506 | 0.541 | 0.376 | 0.901 | 0.505 | 0.552 | 0.956 | 0.488 | 0.38 | 0.401 | 1.78 | 0.785 | 0.597 |
| MGCVNYGAYIN [GLB1_Y485_R482C] | 1.32 | 0.793 | 0.83 | 0.469 | 0.851 | 0.571 | 1.37 | 0.578 | 0.572 | 1.56 | 0.483 | 1.39 | 1.08 | 1.44 | 0.606 | 0.569 |
| GGDAVYTNGTI [RFX2_Y82_A86T] | 0.778 | 1.39 | 0.488 | 0.392 | 0.613 | 0.464 | 0.836 | 1.17 | 1.19 | 0.667 | 0.391 | 0.74 | 1.32 | 0.91 | 0.597 | 0.434 |
| EEAAGYAQESQ [CAMKV_Y491] | 1.22 | 0.523 | 0.543 | 0.545 | 0.691 | 0.547 | 1.39 | 0.401 | 0.661 | 1.2 | 0.325 | 0.935 | 0.604 | 1.05 | 0.718 | 0.577 |
